From patent US5670477A, “Method to enhance permeability of the blood/brain blood/nerve bariers to therapeutic agents” (Poduslo; Joseph F., priority 1995, dated 1997)
Where “and” joins values, the source holds several entries; their conditions need not be identical. Equal entries are not always repeated.

Experiments:
[1] = plasma half-life from plasma clearance curves after I.V. bolus; conditions: for t1 (plasma half-life): Table 5, n = 6
Method: Animals and Reagents. Male Sprague-Dawley rats (24-weeks-old, 460-500 g) were obtained from Bio Lab (St. Paul) and were used to determine the PS and Vp measurements. All animals were kept for a minimum of 3 days under standard housing conditions and feeding schedules prior to the experiments. […] Insulin (Mr =6000) was obtained as humulin RU-100 from Eli Lily. […] Affinity purified human IgG was obtained from Accurate Chemicals (Mr =150,000). […] Plasma half-lives were determined from plasma clearance curves for all the proteins using the standard exponential decay equation in In Plot Scientific Graphics (Graph Pad Software).
The experimental protocol employed was based on the methods of Ohno et al. Am. […] Over the next 30 or 60 minutes, serial blood samples were collected from the brachial artery to generate a plasma washout curve.

[2] = PS and Vp of the blood-nerve barrier, radioiodinated I.V. bolus; format: in vivo, rat (Sprague-Dawley)
Method: (§1) Free radioactive iodine was separated from the radiolabeled conjugates and agents by dialysis against 0.2M NaI.
(§2) After the final blood sample was collected, the animal was sacrificed, the brain and meninges removed, and the brain dissected into the cortex, caudateputamen (neostriatum), hippocampus, thalamus, brain stem, and cerebellum. The sciatic nerve was also rapidly removed and desheathed. Tissue was lyophilized, and dry weights were determined with a microbalance and converted to respective wet weights with wet weightry weight ratios previously determined for the desheathed rat sciatic nerve and the various brain regions. […] Statistical evaluations were performed using the t-test with significance accepted at the P<0.05 level.

[3] = PS and Vp of the blood-brain barrier, radioiodinated I.V. bolus; format: in vivo, rat (Sprague-Dawley)
Method: as §1, §2

[4] = isoelectric focusing (Coomassie blue); format: physicochemical; conditions: Coomassie blue stain
Method: Protein samples were solubilized in SDS under reducing conditions with 2-mercaptoethanol followed by electrophoresis and staining with Coomassie blue. Pharmacia low molecular weight calibration kit was used for the protein standards. The 40% Bio-Lyte 3/10 ampholyte from Bio-Rad was used for isoelectric focusing with an acrylamide monomer concentration of 25% T and 3% C. Polymerization time was 15 minutes, with 5 minutes allowed for sample diffusion. Electrophoresis time was 45 minutes with increasing voltage to a maximum voltage of 450 volts for the last 15 minutes. IEF standards were obtained from Bio-Rad and contained nine natural proteins with the isoelectic points ranging from 4.45 to 9.6 and were visualized with Coomassie blue.

[5] = test system: choline acetyltransferase (ChAT); assay: choline acetyltransferase (ChAT) activity in brain regions after parenteral administration; format: in vivo, mouse (BALB/cJ)
Method: Adult BALB/cJ mice were used. The injection site was alternated on a daily basis between I.M. (thigh) and I.V. injection (tail vein), and the vehicle consisted of 1.5 mg/ml of BSA in 0.9% NaCl. The amount of NGF or PUT-NGF injected was 15 μg/day/animal for a duration of 14 days. Three groups of animals (n=7) were injected with either vehicle alone, NGF, and PUT-NGF. At the end of the experiment, the brains were removed and dissected into five regions which included the septum, hippocampus, nucleus basalis (substantia innominata), caudate-putamen (neostriatum), and cortex and stored at -70° C. The septum was dissected from the hippocampus at the fornix and continued into the basal forebrain.
Subsequently, a radiochemical assay using [1-^14 C] acetyl-CoA was performed according to the method of Fonnum. Fonnum, "A rapid radiochemical method for the determination of choline acetyltransferase", J. Neurochem., 24, 407 (1975). Data were expressed as cpm/μg protein and are given as mean ± SEM. Protein concentration was determined by the BCA procedure (Smith et al., "Measurement of protein using bicinchoninic acid", Anal. Biochem., 150, 76 (1985)) with the Pierce assay kit using bovine serum albumin as a standard. Statistical analysis was by the unpaired t-test (two-tailed) with significance accepted as P<0.05.

[6] = 15 μg/day/animal, 14 days, x ± SEM, n = 7

| Molecule | PS of the BNB ([2]; nerve / endoneurium) | PS of the BNB ([2]; nerve, x ± SEM) | Vp (residual plasma volume) of the BNB ([2]; nerve, x ± SEM) | PS of the BBB ([3]; brain stem, x ± SEM) | Vp of the BBB ([3]; brain stem, x ± SEM) | PS of the BBB ([3]; caudate-putamen, x ± SEM) | Vp of the BBB ([3]; caudate-putamen, x ± SEM) | PS of the BBB ([3]; cerebellum, x ± SEM) | Vp of the BBB ([3]; cerebellum, x ± SEM) | PS of the BBB ([3]; cortex, x ± SEM) | Vp of the BBB ([3]; cortex, x ± SEM) | Vp of the BBB ([3]; hippocampus, x ± SEM) | PS of the BBB ([3]; thalamus, x ± SEM) | t1 (plasma half-life) ([1]; x ± SEM) | pI (isoelectric point) [4] | PS of the BBB ([3]; hippocampus, x ± SEM) | Vp of the BBB ([3]; thalamus, x ± SEM) | further results |
| --- | --- | --- | --- | --- | --- | --- | --- | --- | --- | --- | --- | --- | --- | --- | --- | --- | --- | --- |
| INS: Insulin (Mr =6000) obtained as humulin RU-100 from Eli Lily [reference compound] | 3.32e-05 mL/g/s | 33.19 ± 2.05 ml/g/sec × 10^6 | 5.05 ± 0.87 µL/g | 22.62 ± 3.35 ml/sec × 10^6 | 12.35 ± 0.99 µL/g | 16.88 ± 1.79 ml/sec × 10^6 | 6.08 ± 0.30 µL/g | 20.12 ± 2.78 ml/sec × 10^6 | 10.56 ± 0.96 µL/g | 15.78 ± 2.45 ml/sec × 10^6 | 6.44 ± 0.49 µL/g | 7.04 ± 0.68 µL/g | 18.42 ± 2.41 ml/sec × 10^6 | – | – | – | – | t1/2 (plasma half-life) ([1]; Table 4, x ± SEM, n = 5): 1.18 ± 0.09 min |
| SOD: superoxide dismutase isolated from bovine erythrocytes, monomeric molecular weight 16,250 daltons | 2.24 10^-6 mL/g/sec | 1.79 ± 0.12 ml/g/sec × 10^6 and 2.24 ± 0.22 ml/g/sec × 10^6 | 1.87 ± 0.10 µL/g and 2.63 ± 0.22 µL/g | 3.19 ± 0.13 ml/g/sec × 10^6 and 3.13 ± 0.14 ml/g/sec × 10^6 | 13.77 ± 2.10 µL/g and 16.26 ± 1.22 µL/g | 1.52 ± 0.07 ml/g/sec × 10^6 and 1.78 ± 0.11 ml/g/sec × 10^6 | 5.62 ± 0.23 µL/g and 5.76 ± 0.40 µL/g | 2.94 ± 0.14 ml/g/sec × 10^6 and 2.69 ± 0.11 ml/g/sec × 10^6 | 10.20 ± 0.89 µL/g and 14.61 ± 1.09 µL/g | 1.81 ± 0.06 ml/g/sec × 10^6 and 1.80 ± 0.09 ml/g/sec × 10^6 | 6.13 ± 0.34 µL/g and 5.77 ± 0.34 µL/g | 7.94 ± 0.25 µL/g and 7.26 ± 0.77 µL/g | 2.61 ± 0.15 ml/g/sec × 10^6 and 2.71 ± 0.20 ml/g/sec × 10^6 | 3.64 ± 0.21 min | 4.95 | 1.98 ± 0.08 ml/g/sec × 10^6 and 2.15 ± 0.01 ml/g/sec × 10^6 | 9.73 ± 0.43 µL/g and 12.83 ± 1.97 µL/g | PS of the BNB ([2]; nerve): 1.79 ± 0.12 10^-6 mL/g/sec; PS of the BNB relative to native albumin ([2]; nerve, albumin compared from Poduslo et al. 1994): approximately 22 fold; PS of the BBB ([3]; brain stem): 3.13e-06 mL/g/s; PS of the BBB relative to native albumin ([3]; brain stem): 54 fold; PS of the BBB ([3]; caudate-putamen): approximately 1.8 ×10^-6 ml/sec; PS of the BBB ([3]; cortex): approximately 1.8 ×10^-6 ml/sec; PS of the BBB relative to native albumin ([3]; cortex): 12 fold |
| SPD-SOD: SOD modified with spermidine using water-soluble carbodiimide at pH 4.7 | 2.41e-05 mL/g/s | 24.1 ± 1.23 ml/g/sec × 10^6 | 3.03 ± 0.35 µL/g | 36.85 ± 1.70 ml/g/sec × 10^6 | 13.94 ± 1.29 µL/g | 32.65 ± 2.03 ml/g/sec × 10^6 | 8.23 ± 0.40 µL/g | 37.28 ± 1.01 ml/g/sec × 10^6 | 12.59 ± 0.90 µL/g | 25.00 ± 0.90 ml/g/sec × 10^6 | 7.10 ± 0.31 µL/g | 7.73 ± 0.58 µL/g | 34.35 ± 1.42 ml/g/sec × 10^6 | 0.75 ± 0.05 min | – | 28.75 ± 1.39 ml/g/sec × 10^6 | 11.23 ± 0.63 µL/g | decrease of plasma half-life versus native protein ([1]; fold less than native protein): 4.9 fold; PS of the BNB, RI vs. native protein ([2]; nerve): 10.8; PS of the BNB, relative increase vs. native protein ([2]; nerve): 10.8 fold; Vp of the BNB, RI vs. native protein ([2]; nerve): 1.2; PS of the BBB, RI vs. native protein ([3]; brain stem): 11.8; Vp of the BBB, RI vs. native protein ([3]; brain stem): 1.0; PS of the BBB, RI vs. native protein ([3]; caudate-putamen): 18.3; Vp of the BBB, RI vs. native protein ([3]; caudate-putamen): 1.4; PS of the BBB, RI vs. native protein ([3]; cerebellum): 13.9; Vp of the BBB, RI vs. native protein ([3]; cerebellum): 1.2; PS of the BBB, RI vs. native protein ([3]; cortex): 13.9; Vp of the BBB, RI vs. native protein ([3]; cortex): 1.2; PS of the BBB, RI vs. native protein ([3]; hippocampus): 13.4; Vp of the BBB, RI vs. native protein ([3]; hippocampus): 1.1; PS of the BBB, RI vs. native protein ([3]; thalamus): 12.7; Vp of the BBB, RI vs. native protein ([3]; thalamus): 1.2 |
| NGF: Ultrapure 2.5S nerve growth factor (printed 2.55 NGF) from Harlan Bioproducts (protein, UniProt P01139 122-241, looked up) Beta-nerve growth factor: SSTHPVFHMGEFSVCDSVSVWVGDKTTATDIKGKEVTVLAEVNINNSVFRQYFFETKCRASNPVESGCRGIDSKHWNSYCTTTHTFVKALTTDEKQAAWRFIRIDTACVCVLSRKATRRG | – | 1.74 ± 0.15 ml/g/sec × 10^6 | 1.53 ± 0.12 µL/g | 3.38 ± 0.09 ml/g/sec × 10^6 | 16.60 ± 1.01 µL/g | 1.64 ± 0.04 ml/g/sec × 10^6 | 5.78 ± 0.42 µL/g | 2.93 ± 0.10 ml/g/sec × 10^6 | 11.54 ± 0.71 µL/g | 1.91 ± 0.07 ml/g/sec × 10^6 | 7.19 ± 0.20 µL/g | 8.56 ± 0.21 µL/g | 2.79 ± 0.09 ml/g/sec × 10^6 | – | major band with an isoelectric point less than cytochrome c | 2.30 ± 0.10 ml/g/sec × 10^6 | 11.65 ± 0.81 µL/g | ChAT activity, caudate-putamen [5, 6]: 559 ± 47 cpm/μg protein; ChAT activity, cortex [5, 6]: 294 ± 9 cpm/μg protein; ChAT activity, hippocampus [5, 6]: 236 ± 17 cpm/μg protein; ChAT activity, nucleus basalis [5, 6]: 109 ± 15 cpm/μg protein; ChAT activity, septum [5, 6]: 443 ± 65 cpm/μg protein; ChAT activity versus comparator, in words ([5]; NGF vs vehicle: five brain regions, PUT-NGF vs NGF: hippocampus, caudate-putamen, cortex): no significant difference; ChAT activity, NGF vs. Vehicle % Increase ([5]; caudate-putamen): 18.4%; ChAT activity, NGF vs. Vehicle % Increase ([5]; cortex): 4.6%; ChAT activity, NGF vs. Vehicle % Increase ([5]; hippocampus): 0.4%; ChAT activity, NGF vs. Vehicle % Increase ([5]; nucleus basalis): 12.4%; ChAT activity, NGF vs. Vehicle % Increase ([5]; septum): 0.2% |
